{"source": "patent US8323971B2", "about": "“Differentiation of pluripotent cells into primary germ layer progenitors” (Cambridge Enterprise Limited, priority 2006, dated 2012)", "assay_type_in_all_cases": "cell-based, human", "key": {"hESCs [1]": {"tested_on": "hESCs", "test": "Quantitation of β-tubulin III positive cells in monolayer differentiation", "conditions": "expressing hESCs differentiated in CDM, monolayer, 24 days", "procedure": "In some experiments, Wildtype and Lefty expressing hESCs were grown on fibronectin in FGF (12 ng/ml)/Activin (20 ng/ml) as a monolayer in the absence of a feeder layer (Vallier et al., 2005). When cells were 70-80% confluent medium was changed to either CDM only, CDM/FGF (12 ng/ml), CDM/Noggin 200 ng/ml, CDM/SU5402 and differentiated for 24 days.\nTo quantify the neurogenic potential of Lefty expressing hESCs, we cultured Lefty expressing hESCs in feeder-free conditions as a monolayer in CDM supplemented with Activin and FGF as described previously (Vallier et al., 2005). When cells reached 70-80% confluency, medium was changed to CDM only, CDM plus FGF (12 ng/ml) (CDM/FGF), CDM plus the BMP inhibitor Noggin (200 ng/ml) ([…]) (CDM/SU5402), and cells were cultured in these conditions for 24 days\nThe incidence of neural differentiation was determined by counting the number of β-tubulin III positive cells in random fields."}, "hESC derived EBs [2]": {"tested_on": "hESC derived EBs", "test": "Quantitation of rosette structures in EBs", "conditions": "expressing EBs grown in CDM", "procedure": "(§1) Lefty or Cerb-S expressing hESCs (as well as wildtype H9 and hSF-6 hESCs) were grown in 6 cm dishes (Corning), on mouse feeders. When confluent, hESCs were passaged using collagenase 1 mg/ml, as previously described (Schatten et al., 2005) and cultured in non-adherent conditions in CDM supplemented with either SU5402 (Calbiochem; 10 μM), SB431542 (Tocris; 20 μM), FGF-2 (R&D Systems; 12 ng/ml) or Noggin 200 ng/ml.\nTo investigate the development of EBs derived from Lefty or Cerb-S overexpressing hESCs, we grew the cells as EBs in suspension culture using CDM medium. As previously observed (Vallier et al., 2004a), wildtype control EBs grown in CDM developed almost exclusively as simple spheres with no apparent tissue organisation. […] Hematoxylin/Eosin staining of sectioned EBs confirmed that these folded structures found in Lefty overexpressing EBs were neuroectoderm-like, with internal epithelial rosettes. Lefty and Cerb-S expressing EBs contained respectively 5 times (Pb 0.05) and 2 times (not significant, N.S.) more epithelial rosettes than control EBs (FIG. 5)."}, "hESC derived EBs [3]": {"tested_on": "hESC derived EBs", "test": "Real time qPCR / RT-PCR of neuroectoderm and pluripotency markers in EBs", "procedure": "Four independent batches of WT and Lefty EBs were used for this analysis.\nFive independent batches of DMSO- and SB431542-treated EBs were used for this analysis.\nas §1\nFor some RT-PCR experiments, 50-100 ng of RNA were used for each RT-PCR reaction, using the OneStep RT-PCR kit according to manufacturer instructions. For real-time PCR, 1 μg RNA was reverse-transcribed using the Qiagen QuantiTect Reverse Transcription kit. 1/20-1/40 of each cDNA reaction was used for each real-time PCR reaction using the QuantiTect SYBR Green PCR Kit (Qiagen) according to manufacturer instructions. Relative quantification of gene expression was done by normalising the detected levels of gene of interest mRNA to those of the house-keeping GAPDH gene. All primers were purchased from Qiagen, with the exception of Xenopus Cerb-S: Forward 5′-[…]-3′ (SEQ ID NO: 1); Reverse 5′-ATGGTGCAGGGTAG TAGATG-3′ (SEQ ID NO: 2). Mouse Lefty2: Forward 5^r-[…]-3′ (SEQ ID NO: 3); Reverse 5′-[…]-3′ (SEQ ID NO: 4)."}, "hESC derived EBs [4]": {"tested_on": "hESC derived EBs", "test": "Incidence of beating structures in EBs plated in MEF media", "conditions": "over-expressing EBs in MEF medium containing FBS", "procedure": "Lefty, Cerb-S expressing and wildtype EBs were plated in MEF media, and beating EBs were counted. Lefty expressing EBs generated fewer beating structures as compared to wildtype EBs (NS=not significant) (Scale bar=[…]).\nIn some experiments, hESCs were incubated in DMEM supplemented with 10% FCS and 1 mM glutamine (MEF media) to promote mesoderm formation. EBs were then grown for 12-16 days at 37° C. at […] before being harvested for histological or molecular marker analysis.\nTo evaluate further the differentiation potential of Lefty and Cerb-S overexpressing hESCs, EBs were cultured in MEF medium containing fetal bovine serum (FBS), which promotes the formation of mesoderm lineages including cardiomyocytes, as recognised by rhythmically beating structures. […] Nodal expressing EBs grown in these conditions were not seen to generate such beating structures, and instead maintained expression of the pluripotency marker Oct-4 (FIG. 7)."}, "hESCs [5]": {"tested_on": "hESCs", "test": "FACs fraction of cells expressing CXCR4 or PDGFR after mesendoderm induction in CDM PVA", "conditions": "Activin 100 ng/ml at third step with BMP4 and FGF2, CDM-PVA", "procedure": "Fraction of cells expressing CXCR4 or PDGFa was determined using FACs after the third day in CDM+BMP+FGF+Activin.\nhESCs grown in Feeder free and serum free conditions were harvested using 5 mg/ml collagenase IV then plated into plates pre-coated with fibronectin. hESCs were grown for 48 hours in CDM supplemented with Activin (10 ng/ml, RandD systems) and FGF2 (12 ng/ml, RandD systems). To induce extra-embryonic differentiation, hESCs were grown for 5 additional days in CDM supplemented with BMP4 (10 ng/ml, RandD systems). To obtain neuroectoderm progenitors, hESCs were grown in CDM or in CDM-PVA in the presence of SB431542 (10 μM Tocris) and FGF2 (12 ng/ml, RandD systems) for 7 additional days. The resulting cells were grown in non-adherent conditions for 10 days and then plated back for 5 additional days in CDM to obtain fully differentiated neuronal cells. To obtain mesendoderm precursors, hESCs were grown for 3 additional days in CDM-PVA in the presence of SU5402 (10 μM, Calbiochem) and Activin (5 ng/ml, RandD systems). […]\nFor detection of Tra-1-60, SSEA-3, N-CAM, CXCR4 and PDGFαRecptor adherent cells were washed twice in PBS then incubated for 20 minutes at 37 C in cell dissociation buffer (Invitrogen). […] Live cells identified by 7-AAD exclusion were analyzed for surface-marker expression using FACSCalibur."}}, "data": [{"molecule": "Lefty: mouse Lefty2, Nodal inhibitor stably over-expressed in hESCs (protein, UniProt P57785 78-368, looked up) Left-right determination …: FSQNFREVAGRFLMSETSTHLLVFGMEQRLPPNSELVQAVLRLFQEPVPRTALRRFERLSPHSARARVTIEWLRVREDGSNRTALIDSRLVSIHESGWKAFDVTEAVNFWQQLSRPRQPLLLQVSVQREHLGPGTWSAHKLVRFAAQGTPDGKGQGEPQLELHTLDLKDYGAQGNCDPEVPVTEGTRCCRQEMYLDLQGMKWAENWILEPPGFLTYECVGSCLQLPESLTIGWPFLGPRQCVASEMTSLPMIVSVKEGGRTRPQVVSLPNMRVQTCSCASDGALIPRGIDL", "values": [{"measurement": "β-tubulin III positive cells/field", "setting": "hESCs [1]", "result": "69±13", "unit": "cells/field"}, {"measurement": "epithelial rosettes relative to control EBs", "setting": "hESC derived EBs [2]", "result": 5, "unit": "times"}, {"measurement": "Nestin, Sox3 and Sox1 expression (real-time qPCR)", "setting": "hESC derived EBs [3]; expressing EBs compared to wildtype", "result": "increased average levels"}, {"measurement": "decrease of incidence of rhythmically contracting structures compared to wildtype EBs", "setting": "hESC derived EBs [4]", "result": "~79", "unit": "%"}]}, {"molecule": "Activin: dimeric polypeptide stimulating the Activin/Nodal pathway (protein, UniProt P08476 311-426, looked up, Inhibin beta A chain) Inhibin beta A chain: GLECDGKVNICCKKQFFVSFKDIGWNDWIIAPSGYHANYCEGECPSHIAGTSGSSLSFHSTVINHYRMRGHSPFANLKSCCVPTKLRPMSMLYYDDGQNIIKKDIQNMIVEECGCS", "values": [{"measurement": "expression of neuroectoderm markers Sox1, Sox3, Nestin and NGN2", "setting": "hESC derived EBs [3]; addition to EB cultures", "result": "decreasing expression"}, {"measurement": "fraction of cells expressing CXCR4", "setting": "hESCs [5]", "result": 70, "unit": "%"}, {"measurement": "fraction of cells expressing PDGFR", "setting": "hESCs [5]", "result": 7, "unit": "%"}]}]}
